Target: GST-Cln3-10A (S. cerevisiae (budding yeast)) (UniProt P13365)
Assay: pull-down

UniProt P13365, sequence (P13365 whole entry): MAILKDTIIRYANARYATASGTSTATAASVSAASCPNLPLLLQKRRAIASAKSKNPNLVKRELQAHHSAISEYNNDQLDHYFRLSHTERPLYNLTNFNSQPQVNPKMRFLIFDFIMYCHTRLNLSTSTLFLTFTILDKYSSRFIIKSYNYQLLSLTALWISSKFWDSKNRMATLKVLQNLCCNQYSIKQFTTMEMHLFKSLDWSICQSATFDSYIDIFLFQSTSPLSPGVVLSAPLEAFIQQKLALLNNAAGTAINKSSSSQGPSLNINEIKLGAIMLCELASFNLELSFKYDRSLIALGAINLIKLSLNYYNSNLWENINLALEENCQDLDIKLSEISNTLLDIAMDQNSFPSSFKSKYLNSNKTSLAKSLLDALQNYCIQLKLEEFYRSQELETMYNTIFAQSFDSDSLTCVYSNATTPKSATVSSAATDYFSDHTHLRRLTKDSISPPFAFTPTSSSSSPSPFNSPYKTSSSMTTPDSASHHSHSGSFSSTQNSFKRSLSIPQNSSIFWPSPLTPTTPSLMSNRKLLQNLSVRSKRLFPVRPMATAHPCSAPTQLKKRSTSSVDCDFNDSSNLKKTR
Cdk1, sequence (P00546 whole entry): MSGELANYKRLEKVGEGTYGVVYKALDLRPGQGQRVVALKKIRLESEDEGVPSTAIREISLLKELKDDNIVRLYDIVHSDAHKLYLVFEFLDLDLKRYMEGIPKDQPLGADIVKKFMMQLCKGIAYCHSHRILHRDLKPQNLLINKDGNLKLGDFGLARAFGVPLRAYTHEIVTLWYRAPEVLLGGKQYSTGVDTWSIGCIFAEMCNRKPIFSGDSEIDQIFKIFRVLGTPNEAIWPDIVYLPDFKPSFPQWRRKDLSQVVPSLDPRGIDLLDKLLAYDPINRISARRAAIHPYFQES

fold lower amount of associated Cdk1 than with GST-Clb2: 6 fold
Substance: Cdk1 (from UniProt P00546 1-298) (enzyme)
